Results as given in patent US20210395725A1.
Changes are numbered by the printed parent chain.

How the values were obtained:
[1] = molecular target: BSA (bovine) (UniProt P02769); assay: ELISA; BSA as control antigen, neat eluted His-tagged protein, anti-pentaHis-HRP
[2] = molecular target: human placental laminin (human); assay: HEK293-6E cell display flow cytometry; 500 nM laminin-biotin + streptavidin-Alexa Fluor 647; secondary only 6.09
[3] = molecular target: human placental laminin (human); assay: bead flow cytometry; EVs on CD9+ capture beads, 5 µg/mL biotinylated laminin + neutravidin-PE; with competition of 3-fold molar excess of unlabelled laminin (15 µg/mL)
[4] = molecular target: human placental laminin (human); assay: bead flow cytometry; EVs on CD9+ capture beads, 5 µg/mL biotinylated laminin + neutravidin-PE; without competition
[5] = molecular target: human placental laminin (human); assay: HEK293-6E cell display flow cytometry; 500 nM laminin-biotin + streptavidin-Alexa Fluor 647; secondary only 1.77
[6] = molecular target: human placental laminin (human); assay: HEK293-6E cell display flow cytometry; 500 nM laminin-biotin + streptavidin-Alexa Fluor 647; secondary only 5.57
[7] = molecular target: human placental laminin (human); assay: HEK293-6E cell display flow cytometry; 500 nM laminin-biotin + streptavidin-Alexa Fluor 647; secondary only 3.28
[8] = molecular target: human placental laminin (human); assay: HEK293-6E cell display flow cytometry; 500 nM laminin-biotin + streptavidin-Alexa Fluor 647; secondary only 4.11
[9] = molecular target: human placental laminin (human); assay: HEK293-6E cell display flow cytometry; 500 nM laminin-biotin + streptavidin-Alexa Fluor 647; secondary only 4.17

BSA (bovine), sequence (P02769 25-607 limits assumed): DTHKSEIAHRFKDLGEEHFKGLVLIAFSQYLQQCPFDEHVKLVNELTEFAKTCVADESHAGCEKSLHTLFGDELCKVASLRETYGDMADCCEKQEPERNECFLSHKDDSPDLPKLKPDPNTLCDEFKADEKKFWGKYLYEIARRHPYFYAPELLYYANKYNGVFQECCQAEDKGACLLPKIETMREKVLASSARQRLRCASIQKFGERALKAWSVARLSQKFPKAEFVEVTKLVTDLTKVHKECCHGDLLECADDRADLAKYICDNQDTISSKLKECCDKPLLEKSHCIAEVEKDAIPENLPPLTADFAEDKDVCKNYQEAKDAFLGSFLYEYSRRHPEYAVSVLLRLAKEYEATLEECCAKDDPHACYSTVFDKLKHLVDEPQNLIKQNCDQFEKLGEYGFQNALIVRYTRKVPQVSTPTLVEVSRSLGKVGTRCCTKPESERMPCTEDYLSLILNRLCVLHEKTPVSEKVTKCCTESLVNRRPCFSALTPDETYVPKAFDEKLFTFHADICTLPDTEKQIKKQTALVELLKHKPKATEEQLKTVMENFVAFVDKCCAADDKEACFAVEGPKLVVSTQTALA

B1: laminin-binding CD81 LEL mutant L3B_LU1_2 (designed binder)
chain: FVNKDQIAKDVKQFYDQCLKYACKQGDWENAKACVKTFHETLDCCGSSTVANMTRCVLPANLCPSGSNIISNLFKEDCHQKIDDLFSGK
- A450/620 (average) [1]: 0.021

B2: laminin-binding CD81 LEL mutant L2B_LU1 (designed binder)
chain: FVNKDQIAKDVKQFYDQALVFCCFGGHANNACAVVKTFHETLDCCGSSTHPYKTKCVLQRNLCPSGSNIISNLFKEDCHQKIDDLFSGK
- % antigen-positive cells [2]: 54.2%

B3: wild-type CD81-eGFP on recombinant EVs (protein, not shown: large carriers)
chain: MGVEGCTKCIKYLLFVFNFVFWLAGGVILGVALWLRHDPQTTNLLYLELGDKAPNTFYVGIYILIAVGAVMMFVGFLGCYGAIQESQCLLGTFFTCLVILFACEVAAGIWGFVNKDQIAKDVKQFYDQALQQAVVDDDANNAKAVVKTFHETLDCCGSSTLTALTTSVLKNNLCPSGSNIISNLFKEDCHQKIDDLFSGKLYLIGIAAIVVAVIMIFEMILSMVLCCGIRNSSVY
- Mean 561 [3]: 23900
- Mean 561 - BG [3]: 18700
- ratio 488/561 [3]: 0.248
- Mean 561 [4]: 20200
- Mean 561 - BG [4]: 14800
- ratio 488/561 [4]: 0.21

B4: laminin-binding CD81 LEL mutant L3A_LU1 (designed binder)
chain: FVNKDQIAKDVKQFYDQCLLWACSKRYKYNAKACVKTFHETLDCCGSSTMGNLTECVLIENLCPSGSNIISNLFKEDCHQKIDDLFSGK
- A450/620 (average) [1]: 0.016

B5: laminin-binding CD81 LEL mutant L2B_LU1_1 (designed binder)
chain: FVNKDQIAKDVKQFYDQALWKCCNLSQANNACAVVKTFHETLDCCGSSTYLCATYCVLWPNLCPSGSNIISNLFKEDCHQKIDDLFSGK
- % antigen-positive cells [5]: 20.1%

B6: laminin-binding CD81 LEL mutant L2A_LU1_1 (designed binder)
chain: FVNKDQIAKDVKQFYDQALMICCHRHYANNACAVVKTFHETLDCCGSSTPSSTTPCVLQNNLCPSGSNIISNLFKEDCHQKIDDLFSGK
- % antigen-positive cells [6]: 37.9%

B7: laminin-binding CD81 LEL mutant 81_L21 (designed binder)
chain: B6 chain with M20F, H24F, H26R, P50R, S51N, S52N, T53E, P55A, Q59A, N60K
- % antigen-positive cells [7]: 37.1%

B8: laminin-binding CD81 LEL mutant L2A_LU1 (designed binder)
chain: FVNKDQIAKDVKQFYDQALRECCNTFDANNACAVVKTFHETLDCCGSSTTHSSTGCVLFFNLCPSGSNIISNLFKEDCHQKIDDLFSGK
- A450/620 (average) [1]: 0.045

B9: laminin-binding CD81 LEL mutant 81_L17 (designed binder)
chain: FVNKDQIAKDVKQFYDQCLRHACSGLSGRNAKACVKTFHETLDCCGSSTIKHKTLCVLIKNLCPSGSNIISNLFKEDCHQKIDDLFSGK
- % antigen-positive cells [8]: 28.1%

B10: laminin-binding CD81 LEL mutant 81_L13 (designed binder)
chain: FVNKDQIAKDVKQFYDQCLSWACNRKYEPNAKACVKTFHETLDCCGSSTKANYTHCVLEMNLCPSGSNIISNLFKEDCHQKIDDLFSGK
- % antigen-positive cells [9]: 30.8%
